# From US20150273042
# B1: recombinant PI-2b SrtC2 (full-length, strain COH1) in fusion with a His-MBP-tag (protein)
# chain: MIRRYSANFLAILGIILVSSGIYWGWYNINQAHQADLTSQHIVKVLDKSITHQVKGSENGELPVKKLDKTDYLGTLDIPNLKLHLPVAANYSFEQLSKTPTRYYGSYLTNNMVICAHNFPYHFDALKNVDMGTDVYFTTTTGQIYHYKISNREIIEPTAIEKVYKTATSDNDWDLSLFTCTKAGVARVLVRCQLIDVKN
# B2: GBS sortase C1 of PI-2a lid mutant SrtC1Y86A (protein)
# chain: ESNNQTQDFERAAKKLSQKEINRRMALAQAYNDSLNNVHLEDPAEKKRIQKGIAEYARMLEVSEKIGIISVPKIGQKLPIFAGSSQEVLSKGAGHLEGTSLPIGGNSTHTVITAHSGIPDKELFSNLKKLKKGDKFYIQNIKETIAYQVDQIKVVTPDNFSDLLVVPGHDYATLLTCTPIMVNTHRLLVRGHRIPYKGPIDEKLIKDGHLNTIYRYLFYISLVIIAWLLWLIKRQRQKNRLSSVRKGIES
# B3: wild-type GBS sortase C1 of PI-2a, recombinant SrtC1 43-292 (protein)
# chain: ESNNQTQDFERAAKKLSQKEINRRMALAQAYNDSLNNVHLEDPYEKKRIQKGIAEYARMLEVSEKIGIISVPKIGQKLPIFAGSSQEVLSKGAGHLEGTSLPIGGNSTHTVITAHSGIPDKELFSNLKKLKKGDKFYIQNIKETIAYQVDQIKVVTPDNFSDLLVVPGHDYATLLTCTPIMVNTHRLLVRGHRIPYKGPIDEKLIKDGHLNTIYRYLFYISLVIIAWLLWLIKRQRQKNRLSSVRKGIES
# B4: recombinant PI-2b SrtC1 (full-length, strain COH1) in fusion with a His-MBP-tag (protein)
# chain: MAYPSLANYWNSFHQSRAIMDYQDRVTHMDENDYKKIINRAKEYNKQFKTSGMKWHMTSQERLDYNSQLAIDKTGNMGYISIPKINIKLPLYHGTSEKVLQTSIGHLEGSSLPIGGDSTHSILSGHRGLPSSRLFSDLDKLKVGDHWTVSILNETYTYQVDQIRTVKPDDLRDLQIVKGKDYQTLVTCTPYGVNTHRLLVRGHRVPNDNGNALVVAEAIQIEPIYIAPFIAIFLTLILLLISLEVTRRARQRKKILKQAMRKEENNDL
# B5: PI-2b SrtC1 expressed from a complementation vector in GBS strain 515Δ2a (protein)
# chain: MAYPSLANYWNSFHQSRAIMDYQDRVTHMDENDYKKIINRAKEYNKQFKTSGMKWHMTSQERLDYNSQLAIDKTGNMGYISIPKINIKLPLYHGTSEKVLQTSIGHLEGSSLPIGGDSTHSILSGHRGLPSSRLFSDLDKLKVGDHWTVSILNETYTYQVDQIRTVKPDDLRDLQIVKGKDYQTLVTCTPYGVNTHRLLVRGHRVPNDNGNALVVAEAIQIEPIYIAPFIAIFLTLILLLISLEVTRRARQRKKILKQAMRKEENNDL
# How the values were obtained:
# [1] = molecular target: synthetic fluorescent peptide carrying the LPXTG sorting motif of PI-1 minor ancillary protein
# [2] = molecular target: synthetic fluorescent peptide carrying the LPXTG sorting motif of PI-1 backbone protein
# [3] = molecular target: GFP-… (EGFP from pSpeedET with … added at the C-terminus)
# [4] = molecular target: T1, backbone protein PI-1 of GBS (GBS 80)
# T1 chain: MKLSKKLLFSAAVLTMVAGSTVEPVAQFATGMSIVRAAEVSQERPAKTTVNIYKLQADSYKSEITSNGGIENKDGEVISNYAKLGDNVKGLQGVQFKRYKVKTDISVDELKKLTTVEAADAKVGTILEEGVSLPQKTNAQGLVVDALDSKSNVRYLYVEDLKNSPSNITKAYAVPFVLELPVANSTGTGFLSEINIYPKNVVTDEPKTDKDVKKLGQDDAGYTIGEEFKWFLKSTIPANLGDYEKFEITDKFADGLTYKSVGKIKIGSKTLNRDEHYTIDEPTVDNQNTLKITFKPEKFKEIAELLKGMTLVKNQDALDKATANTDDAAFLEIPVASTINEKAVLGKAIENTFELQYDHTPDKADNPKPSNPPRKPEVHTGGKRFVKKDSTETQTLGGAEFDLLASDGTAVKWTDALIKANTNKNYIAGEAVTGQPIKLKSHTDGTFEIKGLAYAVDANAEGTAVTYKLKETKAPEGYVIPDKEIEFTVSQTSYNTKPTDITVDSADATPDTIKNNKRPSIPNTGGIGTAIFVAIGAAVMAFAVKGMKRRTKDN
# [5] = molecular target: recombinant ancillary protein 1 of GBS pilus 2a (AP1-2a)
# [6] = molecular target: recombinant ancillary protein 2 of GBS pilus 2a (AP2-2a)
# [7] = molecular target: T2, recombinant backbone protein of GBS pilus 2a (BP-2a, GBS59), strain 515, BP 30-649
# T2 chain: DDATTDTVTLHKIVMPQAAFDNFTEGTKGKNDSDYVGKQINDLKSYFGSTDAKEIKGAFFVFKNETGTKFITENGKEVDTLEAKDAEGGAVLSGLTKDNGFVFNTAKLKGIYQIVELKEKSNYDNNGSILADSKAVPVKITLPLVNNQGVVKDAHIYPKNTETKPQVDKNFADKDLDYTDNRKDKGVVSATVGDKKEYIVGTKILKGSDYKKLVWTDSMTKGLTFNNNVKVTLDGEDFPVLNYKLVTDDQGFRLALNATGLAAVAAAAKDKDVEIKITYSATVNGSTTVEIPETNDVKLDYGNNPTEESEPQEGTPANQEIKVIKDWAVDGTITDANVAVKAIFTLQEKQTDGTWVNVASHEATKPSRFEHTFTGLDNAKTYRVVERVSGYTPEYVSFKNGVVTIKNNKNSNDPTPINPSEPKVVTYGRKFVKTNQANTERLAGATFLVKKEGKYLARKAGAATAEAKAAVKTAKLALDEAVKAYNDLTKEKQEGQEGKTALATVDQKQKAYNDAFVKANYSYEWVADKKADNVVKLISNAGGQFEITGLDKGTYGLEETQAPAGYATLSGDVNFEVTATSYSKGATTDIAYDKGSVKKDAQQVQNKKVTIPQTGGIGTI
# [8] = molecular target: pilus protein from Streptococcus pneumoniae (RrgB)
# [9] = molecular target: recombinant BP-2a (strain 515) with Lys189 replaced by alanine
# [10] = molecular target: T3, recombinant BP-2a (strain 515) lacking the C-terminal IPQTG sorting signal, BP 30-640
# T3 chain: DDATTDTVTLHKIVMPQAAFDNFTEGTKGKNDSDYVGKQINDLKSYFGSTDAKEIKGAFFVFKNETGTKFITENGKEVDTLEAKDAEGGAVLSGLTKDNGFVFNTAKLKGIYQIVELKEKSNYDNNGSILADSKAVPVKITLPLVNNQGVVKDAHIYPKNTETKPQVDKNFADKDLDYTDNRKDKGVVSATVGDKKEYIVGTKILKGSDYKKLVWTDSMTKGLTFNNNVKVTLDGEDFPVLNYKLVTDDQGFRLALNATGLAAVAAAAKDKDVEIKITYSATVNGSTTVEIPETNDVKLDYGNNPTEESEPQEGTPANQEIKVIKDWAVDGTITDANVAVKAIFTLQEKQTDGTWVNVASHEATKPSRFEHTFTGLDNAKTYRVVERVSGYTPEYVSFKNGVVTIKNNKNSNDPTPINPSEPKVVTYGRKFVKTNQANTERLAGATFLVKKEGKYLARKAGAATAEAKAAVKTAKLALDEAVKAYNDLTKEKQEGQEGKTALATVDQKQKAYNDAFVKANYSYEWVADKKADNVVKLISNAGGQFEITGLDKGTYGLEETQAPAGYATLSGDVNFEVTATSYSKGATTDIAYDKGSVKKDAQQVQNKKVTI
# [11] = molecular target: T4, backbone protein of GBS PI-2b (Spb1) expressed from a complementation vector in GBS strain 515Δ2a
# T4 chain: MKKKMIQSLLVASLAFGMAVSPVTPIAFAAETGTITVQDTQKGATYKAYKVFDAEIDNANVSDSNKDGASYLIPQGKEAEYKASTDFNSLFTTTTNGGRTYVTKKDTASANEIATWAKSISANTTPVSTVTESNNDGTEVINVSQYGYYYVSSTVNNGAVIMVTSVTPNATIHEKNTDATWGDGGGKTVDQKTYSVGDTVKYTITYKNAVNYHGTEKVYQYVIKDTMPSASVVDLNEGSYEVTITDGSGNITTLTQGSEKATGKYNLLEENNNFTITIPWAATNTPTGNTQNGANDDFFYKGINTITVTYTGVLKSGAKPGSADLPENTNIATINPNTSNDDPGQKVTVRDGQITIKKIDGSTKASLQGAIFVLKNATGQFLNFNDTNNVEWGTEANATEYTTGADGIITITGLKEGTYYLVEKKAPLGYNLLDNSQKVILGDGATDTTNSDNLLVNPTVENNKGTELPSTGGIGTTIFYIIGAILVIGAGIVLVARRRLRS
protein,measurement,setting,value
B1,"FRET assay, cleavage of fluorescent peptide",[1],The PI-2b SrtC1 and SrtC2 enzymes are able to cleave the fluorescent peptides
same,"FRET assay, cleavage of fluorescent peptide",[2],The PI-2b SrtC1 and SrtC2 enzymes are able to cleave the fluorescent peptides
B2,in vitro polymerization reaction,[3],the SrtC1Y86A mutant was able to polymerise GFP-IPQTG
same,in vitro polymerization (SDS-PAGE),[4],FIG. 7 shows that mutant sortase enzymes polymerize pilus proteins from a variety of gram positive bacteria
same,in vitro polymerization (HMW structures on SDS-PAGE),[5],some HMW structures were formed
same,in vitro polymerization (HMW structures on SDS-PAGE),[6],some HMW structures were formed
same,in vitro polymerization (high-molecular-weight bands on SDS-PAGE),[7],"The typical pili pattern of bands with molecular weights above 260 kDa, visible by SDS-page, could be generated when monomeric r-BP was incubated with rSrtC1Y86A"
same,in vitro polymerization (SDS-PAGE),[8],FIG. 7 shows that mutant sortase enzymes polymerize pilus proteins from a variety of gram positive bacteria
same,in vitro polymerization (HMW polymers on SDS-PAGE),[9],HMW polymers could be observed
same,in vitro polymerization (HMW polymers on SDS-PAGE),[10],HMW polymers could not be detected
B3,in vitro polymerization (high-molecular-weight bands on SDS-PAGE),[7],showed no formation of high molecular weight bands that could represent pilus polymers
B4,"FRET assay, cleavage of fluorescent peptide",[1],The PI-2b SrtC1 and SrtC2 enzymes are able to cleave the fluorescent peptides
same,"FRET assay, cleavage of fluorescent peptide",[2],The PI-2b SrtC1 and SrtC2 enzymes are able to cleave the fluorescent peptides
B5,pili polymerisation in complemented GBS 515Δ2a (western blot),[11],transfection with BP and SrtC1 resulted in the formation of high molecular weight polymers
